# Measured values as given in US20080311122A1, “Antagonists of Hmgb1 and/or Rage and Methods of Use Thereof” (Medimmune, LLC, priority 2005, published 2008).
# B1: G9: human anti-HMG1 antibody; VL/VH aa SEQ ID NO: 34/36 (antibody, listed as Homo sapiens, V domains shown)
# VH: EVQLLESGGGLVQPGGSLRLSCAASGFTFSSYDMFWVRQAPGKGLEWVSRISPSGGYTYYADSVKGRFTISRDNSKNTLYLQMNSLRAEDTAVYYCARLRYFDSRGYAFDIWGQGTMVTVSS
# VL: AQDIQMTQSPGTLSLSPGERATLSCRASQSVRSSYLAWYQQKPGQAPRLLIYGASTRATGIPDRFSGSGSGTDFTLTISRLEPEDFAVYYCQQYGTSRWTFGQGTKVEIK
# B2: S16: human anti-HMG1 antibody, ATCC PTA-6259; VL/VH aa SEQ ID NO: 13/15 (antibody, listed as Homo sapiens, V domains shown)
# VH: EVQLLESGGGLVQPGGSLRLSCAASGFTFSWYSMLWVRQAPGKGLEWVSYISPSGGFTNYADSVKGRFTISRDNSKNTLYLQMNSLRAEDTAVYYCARWDYNSGWYYDHWGQGTLVTVSS
# VL: AQDIQMTQSPDTLSLSPGERATLSCRASQSVNSRNLAWYQQKPGQAPRLLIYGASTRATGIPDRFSGSVSGTEFTLTISSLQPDDFATYYCQQYNSYFTFGQGTKLEIK
# B3: E11: human anti-HMG1 antibody, recognizes HMG1 A-Box; VL/VH aa SEQ ID NO: 24/26 (antibody, listed as Homo sapiens, V domains shown)
# VH: EVQLLESGGGLVQPGGSLRLSCAASGFTFSRYQMNWVRQAPGKGLEWVSSISPSGGHTHYADSVKGRFTISRDNSKNTLYLQMNSLRAEDTAVYYCAKDGRQGKISTVDHWGQGTLVTVSS
# VL: AQDIQMTQSPGTLSLSPGERATLSCRASQSVRSNFLAWYQQKPGQAPRLLIYGASRRASGIPDRFSGSGFGADFTLSISRLEPEDFAVYYCQQYGSSPNTFGQGSRVEIK
# Assays:
# HMGB-1 = biological target: T1, HMGB-1 (Homo sapiens, UniProt P09429); assay: Antibody HMG1 binding competition via BIAcore analysis
# T1 sequence (P09429 1-215): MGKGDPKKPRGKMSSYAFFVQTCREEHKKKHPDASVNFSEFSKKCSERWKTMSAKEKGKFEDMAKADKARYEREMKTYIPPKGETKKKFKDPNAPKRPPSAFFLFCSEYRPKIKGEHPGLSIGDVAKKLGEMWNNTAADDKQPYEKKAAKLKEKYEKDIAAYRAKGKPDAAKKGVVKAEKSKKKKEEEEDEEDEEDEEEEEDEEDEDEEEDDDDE
# Experimental: Antibody HMG1 Binding Competition via BIAcore Analysis: All experiments were performed on a BIAcore 3000 instrument (BIAcore, Inc., Piscataway, N.J.). The HMGB-1 protein was immobilized onto a CM5 sensor using a standard amine coupling chemistry protocol, as described in the BIAcore Handbook (BIAcore, Inc., Piscataway, N.J.). Briefly, the CM5 surface subject to the NHS/EDC activation. After activation a HMGB-1 was injected over the surface at a concentration of 100 nM or 200 nM (in 10 mM NaOAc, pH4) to a surface density of between 1100 and 1200 RU's. Following this, unreacted sites on the sensor chip surface were “capped” with an injection of 1M ethanolamine. For reference purposes, a blank flow cell was also prepared, utilizing this same procedure that was used to immobilize HMGB-1, but without any ligand.
# MAbs G2, G4, G9, S6 and Synagis were prepared at 1 uM and 2 uM. All mAb solutions were prepared in HBS-EP buffer (BIAcore, Inc., Piscataway, N.J.). Each cycle started with a 100 μL injection of the first mAb, injected at 1 μM, followed by a second 100 μL injection of a 1:1 mixture of two, 2× concentration mAbs, such that the final concentration of each component mAb in the mixture is equivalent to the first injection. […]
# Once the entire set had been collected, the maximum RU responses for each mAb after each injection cycle was recorded. […]
# [1] = tested on: AIA rat model of arthritis; assay: Adjuvant-induced arthritis (AIA) rat model; type: in vivo; conditions: percent protection, isotype control subtracted
# Experimental: Induction of Adjuvant Induced Arthritis […]: Six-eight week old female DA rats (Harlen) were used. On day 0, isoflurane anesthetized animals were given an intradermal injection, at base of tail, 0.75 mg of mycobacterium butyricum (Difco #0640-33-7) mixed in 100 μl incomplete Freund's adjuvant (Difco, Detroit, Mich.).
# The human anti-HMG1 antibody G4, the A-box-Fc fusion and the huIgG isotype control were administered at 10 mg/kg, every 3 days, day 0-15. Methotrexate was administered at 0.8 mg/kg, every 6 days, day 0-15 and Renbrel was administered at either 2.5 mg/kg every two days, day 0-15 for treatment group 5 or at 4 mg/kg, every 3 days, day 0-15 for treatment group 6. […]
# Monitoring Disease: Beginning at day 6 all animals were observed daily to assess the status of the disease in their paws, which was done by assigning a qualitative clinical score to each of the paws. Every day, each animal has its 4 paws scored according to its state of clinical disease. […] In addition, each mouse is weighed, to follow body weight changes, at the same time the paws are scored.
# The joints of the 4 lateral digits of each paw are graded as involved or not involved, i.e., 1 or 0. For example, a maximally involved left rear paw would be scored: ankles=4, midfoot=4, MTP=4, PIP=4, DIP=4 (20 units). […]
# [2] = tested on: heat inactivated S. aureus induced peritonitis; assay: S. aureus mouse model of peritonitis; type: in vivo
# Experimental: Induction of Peritonitis: Four-six week old female BALB/c mice were used. […] For determination of HMG1 levels on day 0 approximately 10^9 heat inactivated S. aureus (strain 8325-4) cells premixed with 20 mg of galactosamine or galactosamine alone in a 200 μl volume of PBS was administered i.p. A third group of animals was not challenged. Animals were euthanized at 2, 8, and 12 hours after challenge by CO2 inhalation and blood was collected by cardiac puncture. For the antibody treatment studies on day 0 approximately 10^9 heat inactivated S. aureus (strain 8325-4) cells premixed with 20 mg of galactosamine were administered i.p. in a 200 μl volume and the following treatments were administered i.p. in a 100 μl volume 30 minutes prior to challenge as shown in Table 7.
# The animals were also weighed 2× weekly. Animals showing signs of significant morbidity were euthanized. On day 15 all surviving animals were euthanized (euthanized sooner if significant morbidity observed).
molecule,measurement,setting,value
B1,binding sites on HMGB1 by BIAcore competition,HMGB-1,bind to either the same site or sites that are highly related perhaps overlapping
B2,in vivo AIA,[1],0%
B3,mice survived,[2]; lethal dose of heat inactivated S. aureus,8%
same,in vivo S. aureus,"[2]; percent protection, isotype control subtracted",8%
